Data on 94 variants can be found in the supplement of paper PMC10567573.

B1: VAMP4 (parent)
chain: FLRGPSGPRFGPRNDKIKHVQNQV
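Also: lentivirally expressed fusions sorted by FACS into six bins by GFP to DsRed ratio, PSI derived from sequencing read proportions per bin multiplied by bin number.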

Variants of B1 are the subject of this data set. Kind of data set: protein stability index of a GFP-peptide fusion (GPS, HEK-293T) (PSI 1-6); higher = more stable. The following applies: c terminus: a fixed tail appended.
For FLSGPSGPRFGPRNDKIKHVQNQV [R3S], the protein stability index amounted to 3.3.
For FLIGPSGPRFGPRNDKIKHVQNQV [R3I] the value was 2.24; for FLCGPSGPRFGPRNDKIKHVQNQV [R3C], 2.77; for FLDGPSGPRFGPRNDKIKHVQNQV [R3D], 3.29.
Take FLKGPSGPRFGPRNDKIKHVQNQV [R3K]: the protein stability index was determined as 3.04.
In the case of FLGGPSGPRFGPRNDKIKHVQNQV [R3G] it was 2.74; in that of FLLGPSGPRFGPRNDKIKHVQNQV [R3L], 2.42.
For FLVGPSGPRFGPRNDKIKHVQNQV [R3V] the value was 2.08; for FLNGPSGPRFGPRNDKIKHVQNQV [R3N], 2.93; for FLPGPSGPRFGPRNDKIKHVQNQV [R3P], 2.58.
In the case of FLEGPSGPRFGPRNDKIKHVQNQV [R3E] it was 3.56.
Regarding FLMGPSGPRFGPRNDKIKHVQNQV [R3M], the protein stability index is 2.04.
For FLYGPSGPRFGPRNDKIKHVQNQV [R3Y] the value was 1.99.
For FLQGPSGPRFGPRNDKIKHVQNQV [R3Q] the value was 2.6; for FLAGPSGPRFGPRNDKIKHVQNQV [R3A], 2.54; for FLFGPSGPRFGPRNDKIKHVQNQV [R3F], 1.96.
For FLTGPSGPRFGPRNDKIKHVQNQV [R3T] the value was 3.25; for FLHGPSGPRFGPRNDKIKHVQNQV [R3H], 3.17; for FLWGPSGPRFGPRNDKIKHVQNQV [R3W], 2.02.
Turning to FLRFPSGPRFGPRNDKIKHVQNQV [G4F], the protein stability index is 2.47.
In the case of FLRTPSGPRFGPRNDKIKHVQNQV [G4T] it was 3.17; in that of FLRSPSGPRFGPRNDKIKHVQNQV [G4S], 3.06.
In the case of FLRHPSGPRFGPRNDKIKHVQNQV [G4H], the protein stability index came to 2.85.
For FLRAPSGPRFGPRNDKIKHVQNQV [G4A] the value was 3.07; for FLRMPSGPRFGPRNDKIKHVQNQV [G4M], 2.57.
For the variant FLRLPSGPRFGPRNDKIKHVQNQV [G4L], the protein stability index is 2.59.
In the case of FLRYPSGPRFGPRNDKIKHVQNQV [G4Y] it was 2.24; in that of FLREPSGPRFGPRNDKIKHVQNQV [G4E], 3.17; in that of FLRQPSGPRFGPRNDKIKHVQNQV [G4Q], 3.2.
In the case of FLRNPSGPRFGPRNDKIKHVQNQV [G4N] it was 3.08; in that of FLRWPSGPRFGPRNDKIKHVQNQV [G4W], 1.96.
In the case of FLRVPSGPRFGPRNDKIKHVQNQV [G4V] it was 2.6; in that of FLRDPSGPRFGPRNDKIKHVQNQV [G4D], 2.99; in that of FLRKPSGPRFGPRNDKIKHVQNQV [G4K], 2.82.
Consider FLRCPSGPRFGPRNDKIKHVQNQV [G4C], for which the protein stability index was determined as 2.24.
As to FLRPPSGPRFGPRNDKIKHVQNQV [G4P], the protein stability index was 3.12.
For FLRIPSGPRFGPRNDKIKHVQNQV [G4I] the value was 2.05; for FLRRPSGPRFGPRNDKIKHVQNQV [G4R], 3.22; for SLRGPSGPRFGPRNDKIKHVQNQV [F1S], 3.71.
In the case of KLRGPSGPRFGPRNDKIKHVQNQV [F1K] it was 3.35.
In the case of VLRGPSGPRFGPRNDKIKHVQNQV [F1V] it was 3.43; in that of ALRGPSGPRFGPRNDKIKHVQNQV [F1A], 3.87.
Consider PLRGPSGPRFGPRNDKIKHVQNQV [F1P], for which the protein stability index is 4.07.
With DLRGPSGPRFGPRNDKIKHVQNQV [F1D], the protein stability index turned out to be 3.75.
Consider GLRGPSGPRFGPRNDKIKHVQNQV [F1G], for which the protein stability index came out at 3.65.
For WLRGPSGPRFGPRNDKIKHVQNQV [F1W] the value was 2.61.
With RLRGPSGPRFGPRNDKIKHVQNQV [F1R], the protein stability index was found to be 3.35.
For HLRGPSGPRFGPRNDKIKHVQNQV [F1H] the value was 3.22; for MLRGPSGPRFGPRNDKIKHVQNQV [F1M], 3.27.
ELRGPSGPRFGPRNDKIKHVQNQV [F1E]: the protein stability index was found to be 3.6.
In the case of LLRGPSGPRFGPRNDKIKHVQNQV [F1L] it was 3.26; in that of CLRGPSGPRFGPRNDKIKHVQNQV [F1C], 2.85; in that of YLRGPSGPRFGPRNDKIKHVQNQV [F1Y], 2.52.
In the case of NLRGPSGPRFGPRNDKIKHVQNQV [F1N] it was 3.44; in that of QLRGPSGPRFGPRNDKIKHVQNQV [F1Q], 3.68.
With TLRGPSGPRFGPRNDKIKHVQNQV [F1T], the protein stability index turned out to be 3.79.
In the case of ILRGPSGPRFGPRNDKIKHVQNQV [F1I] it was 3.38.
For the variant FERGPSGPRFGPRNDKIKHVQNQV [L2E], the protein stability index stood at 3.71.
For FWRGPSGPRFGPRNDKIKHVQNQV [L2W] the value was 2.9; for FDRGPSGPRFGPRNDKIKHVQNQV [L2D], 3.08.
In the case of FPRGPSGPRFGPRNDKIKHVQNQV [L2P] it was 3.18; in that of FVRGPSGPRFGPRNDKIKHVQNQV [L2V], 1.48.
For FSRGPSGPRFGPRNDKIKHVQNQV [L2S] the value was 3.37; for FGRGPSGPRFGPRNDKIKHVQNQV [L2G], 2.87.
With FYRGPSGPRFGPRNDKIKHVQNQV [L2Y], the protein stability index stood at 2.61.
For FMRGPSGPRFGPRNDKIKHVQNQV [L2M] the value was 2.99; for FCRGPSGPRFGPRNDKIKHVQNQV [L2C], 2.11; for FQRGPSGPRFGPRNDKIKHVQNQV [L2Q], 2.73.
FFRGPSGPRFGPRNDKIKHVQNQV [L2F]: the protein stability index amounted to 3.
In the case of FTRGPSGPRFGPRNDKIKHVQNQV [L2T] it was 2.99; in that of FARGPSGPRFGPRNDKIKHVQNQV [L2A], 2.48; in that of FNRGPSGPRFGPRNDKIKHVQNQV [L2N], 2.69.
For FKRGPSGPRFGPRNDKIKHVQNQV [L2K] the value was 3.21; for FHRGPSGPRFGPRNDKIKHVQNQV [L2H], 1.95; for FIRGPSGPRFGPRNDKIKHVQNQV [L2I], 1.97.
In the case of FRRGPSGPRFGPRNDKIKHVQNQV [L2R] it was 3.43.
Turning to FLRGPEGPRFGPRNDKIKHVQNQV [S6E], the protein stability index amounted to 3.94.
For FLRGPDGPRFGPRNDKIKHVQNQV [S6D] the value was 2.95.
Regarding FLRGPHGPRFGPRNDKIKHVQNQV [S6H], the protein stability index is 2.45.
For FLRGPIGPRFGPRNDKIKHVQNQV [S6I] the value was 1.97; for FLRGPFGPRFGPRNDKIKHVQNQV [S6F], 2.64.
In the case of FLRGPCGPRFGPRNDKIKHVQNQV [S6C] it was 2.03.
In the case of FLRGPGGPRFGPRNDKIKHVQNQV [S6G] it was 2.49.
For FLRGPAGPRFGPRNDKIKHVQNQV [S6A], the protein stability index stood at 2.76.
As to FLRGYSGPRFGPRNDKIKHVQNQV [P5Y], the protein stability index came out at 2.04.
For FLRGASGPRFGPRNDKIKHVQNQV [P5A] the value was 2.79; for FLRGESGPRFGPRNDKIKHVQNQV [P5E], 3.15.
In the case of FLRGDSGPRFGPRNDKIKHVQNQV [P5D] it was 3.36.
FLRGGSGPRFGPRNDKIKHVQNQV [P5G]: the protein stability index came out at 2.43.
For FLRGQSGPRFGPRNDKIKHVQNQV [P5Q] the value was 2.98; for FLRGSSGPRFGPRNDKIKHVQNQV [P5S], 2.96; for FLRGFSGPRFGPRNDKIKHVQNQV [P5F], 2.29.
For FLRGKSGPRFGPRNDKIKHVQNQV [P5K] the value was 2.95; for FLRGMSGPRFGPRNDKIKHVQNQV [P5M], 2.37.
